Among the data in article PMC4768246, “A novel cold-adapted and highly salt-tolerant esterase from Alkalibacterium sp. SL3 from the sediment of a soda lake” (Scientific Reports, 2016) are Km and kcat values, retold here.

Substrate in the data set: CC(=O)Oc1ccc([N+](=O)[O-])cc1
The data set can be described thus: purified protein. It is filed as biochemical, Alkalibacterium sp. SL3. Conditions: 50 mM Tris-HCl pH 9.0, 30 °C, 5 min, 0.05–5 mM substrate.

What is called Km is the concentration of substrate that gives half-maximal velocity. The kcat is the number of substrate molecules converted per active site and unit of time at saturation.

B1: EstSL3 (rEstSL3) (Alkalibacterium sp. SL3) (protein)
chain: MKINKNDTLLFIGDSITDVGRDRMDGEDLGKGFPLMVASHLQSRYPAKRLTVLNRGIGGDSLKDLKRRWEDDCLITNPDIVTLLIGVNDTWRNQNDGVELTDEELDEFESDYRFLLKSLHQRTDARVILMESFVLPYPKRRVGWRNDLDKRIQIVRKMARDYQTELIPLDGLLNAAGIRDGFSYYTGDDGVHPTVAGHGLIANSWLKAVDE
notes: His6-tagged from pET-28a(+) (NcoI-HindIII), E. coli BL21(DE3), Ni-NTA; internal peptides LTVLNRGIGGDSLKDLK, TDARVILMESFVLPYPKR, VGWRNDLDK; catalytic Ser15, Asp189, His192
As to B1, the Km was 150 ± 10 µM and the kcat was determined as 307.69 s⁻¹.
